The text below walks through data of patent US20230109393A1.

In the experiment the target is ACE2-ECD-sFc fusion protein (Homo sapiens). Put plainly: ELISA, plate coated with ACE2 ECD-sFc.

“S1-RBD-His protein (from UniProt P0DTC2 331-530) (ligand)”: the concentration giving a half-maximal response (EC50) (in general, the midpoint of the concentration-response curve) was found to be 0.4 µg/mL.
For “S1-RBD-His-HRP (from UniProt P0DTC2 331-530) (ligand)” the value was 0.19 µg/mL.
